Biological target: T1, wild-type CHIP (carboxyl terminus of Hsc70-interacting protein) (human), Q9UNE7
T1 chain: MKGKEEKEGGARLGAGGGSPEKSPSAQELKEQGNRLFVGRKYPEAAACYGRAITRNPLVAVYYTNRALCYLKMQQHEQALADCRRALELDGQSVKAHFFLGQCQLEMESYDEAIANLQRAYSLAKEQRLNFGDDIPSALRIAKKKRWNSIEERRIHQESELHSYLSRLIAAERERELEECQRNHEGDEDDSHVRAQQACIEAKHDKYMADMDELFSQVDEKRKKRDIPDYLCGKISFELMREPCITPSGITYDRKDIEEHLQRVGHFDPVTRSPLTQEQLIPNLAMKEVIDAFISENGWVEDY
Test: SEC
Settings: remark: other sources report otherwise

B1: wild-type CHIP (carboxyl terminus of Hsc70-interacting protein), Q9UNE7 1-303 (enzyme)
chain: MKGKEEKEGGARLGAGGGSPEKSPSAQELKEQGNRLFVGRKYPEAAACYGRAITRNPLVAVYYTNRALCYLKMQQHEQALADCRRALELDGQSVKAHFFLGQCQLEMESYDEAIANLQRAYSLAKEQRLNFGDDIPSALRIAKKKRWNSIEERRIHQESELHSYLSRLIAAERERELEECQRNHEGDEDDSHVRAQQACIEAKHDKYMADMDELFSQVDEKRKKRDIPDYLCGKISFELMREPCITPSGITYDRKDIEEHLQRVGHFDPVTRSPLTQEQLIPNLAMKEVIDAFISENGWVEDY
- stoichiometry N: 2

Reference: article doi:10.1101/2021.04.16.440242
